Experimental data reported in paper PMC6555819, “Comprehensive study of nuclear receptor DNA binding provides a revised framework for understanding receptor specificity”.

B1: NRC3_wobSeed73_DR3_T21A_o1 (dsDNA)
DNA 1: GCCAAACTAGGTCACAGAGGACAAAGTCCGTGCGTAGCGATTGACAGCGTAGAATGAAGG
DNA 2: CCTTCATTCTACGCTGTCAATCGCTACGCACGGACTTTGTCCTCTGTGACCTAGTTTGGC
B2: NRC3_wobSeed134_DR5_o1 (dsDNA)
DNA 1: GCGCTGCTAGGTCAACTGATGGTCAGCTAAAGCTCGGCGATTGACAGCGTAGAATGAAGG
DNA 2: CCTTCATTCTACGCTGTCAATCGCCGAGCTTTAGCTGACCATCAGTTGACCTAGCAGCGC
B3: NRC3_wobSeed134_DR5_C13T_o1 (dsDNA)
DNA 1: GCGCTGCTAGGTTAACTGATGGTCAGCTAAAGCTCGGCGATTGACAGCGTAGAATGAAGG
DNA 2: CCTTCATTCTACGCTGTCAATCGCCGAGCTTTAGCTGACCATCAGTTAACCTAGCAGCGC
B4: NRC3_wobSeed90_DR3_T12A_o1 (dsDNA)
DNA 1: GCCATACAGGGACAGCTAGGCCAGAGTAGGGACGGCGCGATTGACAGCGTAGAATGAAGG
DNA 2: CCTTCATTCTACGCTGTCAATCGCGCCGTCCCTACTCTGGCCTAGCTGTCCCTGTATGGC
B5: NRC3_wobSeed39_DR1_G10A_o1 (dsDNA)
DNA 1: GCCGAACTAAGTCAAAGGACAGTGAAAGGCGACGTAGCGATTGACAGCGTAGAATGAAGG
DNA 2: CCTTCATTCTACGCTGTCAATCGCTACGTCGCCTTTCACTGTCCTTTGACTTAGTTCGGC
B6: NRC3_wobSeed137_DR5_A16G_o1 (dsDNA)
DNA 1: GCATATGTAGGTTACGTCCGGGTCATTCAGGCTATGGCGATTGACAGCGTAGAATGAAGG
DNA 2: CCTTCATTCTACGCTGTCAATCGCCATAGCCTGAATGACCCGGACGTAACCTACATATGC
B7: NRC3_wobSeed46_DR1_T22G_o1 (dsDNA)
DNA 1: GCTTACCAAGGTGAAAGGTCGGTGATGCACGCCTTGGCGATTGACAGCGTAGAATGAAGG
DNA 2: CCTTCATTCTACGCTGTCAATCGCCAAGGCGTGCATCACCGACCTTTCACCTTGGTAAGC
B8: NRC3_wobSeed136_DR5_G21C_o1 (dsDNA)
DNA 1: GCTAGCCTAGGTCATTCAGGCGCCAGTATAGAAAGCGCGATTGACAGCGTAGAATGAAGG
DNA 2: CCTTCATTCTACGCTGTCAATCGCGCTTTCTATACTGGCGCCTGAATGACCTAGGCTAGC
B9: NRC3_wobSeed64_DR2_T16A_o1 (dsDNA)
DNA 1: GCTAGCCTAGGTCATAGGGCCAGTATAGTACGCATCGCGATTGACAGCGTAGAATGAAGG
DNA 2: CCTTCATTCTACGCTGTCAATCGCGATGCGTACTATACTGGCCCTATGACCTAGGCTAGC
B10: NRC3_wobSeed44_DR1_G10A_o1 (dsDNA)
DNA 1: GCTGAATGAAGTTAAAGATCAGGGAACGTGGCGTCGGCGATTGACAGCGTAGAATGAAGG
DNA 2: CCTTCATTCTACGCTGTCAATCGCCGACGCCACGTTCCCTGATCTTTAACTTCATTCAGC
B11: NRC3_wobSeed44_DR1_G10C_o1 (dsDNA)
DNA 1: GCTGAATGACGTTAAAGATCAGGGAACGTGGCGTCGGCGATTGACAGCGTAGAATGAAGG
DNA 2: CCTTCATTCTACGCTGTCAATCGCCGACGCCACGTTCCCTGATCTTTAACGTCATTCAGC
B12: NRC3_wobSeed88_DR3_T15A_o1 (dsDNA)
DNA 1: GCTAGCCTAGGTCAAGCGGGCCAGTATAGTGTCGGCGCGATTGACAGCGTAGAATGAAGG
DNA 2: CCTTCATTCTACGCTGTCAATCGCGCCGACACTATACTGGCCCGCTTGACCTAGGCTAGC
B13: NRC3_wobSeed34_DR1_G10A_o1 (dsDNA)
DNA 1: GCATCGAAAAGTCGAAGGTGAGTATACCCACCCGAAGCGATTGACAGCGTAGAATGAAGG
DNA 2: CCTTCATTCTACGCTGTCAATCGCTTCGGGTGGGTATACTCACCTTCGACTTTTCGATGC
B14: NRC3_wobSeed36_DR1_A26G_o1 (dsDNA)
DNA 1: GCCCGACTGGGGCAAAGGTTACCATGCTCAGTACGAGCGATTGACAGCGTAGAATGAAGG
DNA 2: CCTTCATTCTACGCTGTCAATCGCTCGTACTGAGCATGGTAACCTTTGCCCCAGTCGGGC
B15: NRC3_wobSeed65_DR2_T8C_o1 (dsDNA)
DNA 1: GCATATGCAGGTTATCGGGTCATTCAGTTTGCGCATGCGATTGACAGCGTAGAATGAAGG
DNA 2: CCTTCATTCTACGCTGTCAATCGCATGCGCAAACTGAATGACCCGATAACCTGCATATGC
B16: NRC3_wobSeed65_DR2_A9G_o1 (dsDNA)
DNA 1: GCATATGTGGGTTATCGGGTCATTCAGTTTGCGCATGCGATTGACAGCGTAGAATGAAGG
DNA 2: CCTTCATTCTACGCTGTCAATCGCATGCGCAAACTGAATGACCCGATAACCCACATATGC
B17: NRC3_wobSeed32_DR1_C4A_o1 (dsDNA)
DNA 1: GCTATTGTAGATCAAAGGTTAAGAAAGCCGAAGCCTGCGATTGACAGCGTAGAATGAAGG
DNA 2: CCTTCATTCTACGCTGTCAATCGCAGGCTTCGGCTTTCTTAACCTTTGATCTACAATAGC
B18: NRC3_wobSeed58_DR2_A9T_o1 (dsDNA)
DNA 1: GCATCGAATGGTCGTGAGGTGAGTATACAGAAAGGCGCGATTGACAGCGTAGAATGAAGG
DNA 2: CCTTCATTCTACGCTGTCAATCGCGCCTTTCTGTATACTCACCTCACGACCATTCGATGC
B19: NRC3_wobSeed17_DR0_G16C_o1 (dsDNA)
DNA 1: GCATATGTAGGTTAGCGTCATTCAGAAAGTAGGGAAGCGATTGACAGCGTAGAATGAAGG
DNA 2: CCTTCATTCTACGCTGTCAATCGCTTCCCTACTTTCTGAATGACGCTAACCTACATATGC
B20: NRC3_wobSeed63_DR2_G19A_o1 (dsDNA)
DNA 1: GCCGAACTAGGTCACCAGAACAGTGAAGAGGTTGGAGCGATTGACAGCGTAGAATGAAGG
DNA 2: CCTTCATTCTACGCTGTCAATCGCTCCAACCTCTTCACTGTTCTGGTGACCTAGTTCGGC
B21: NRC3_wobSeed6_DR0_A6G_o1 (dsDNA)
DNA 1: GCCCTGGCAGGCCAGGGTCACTCAAGCATTTCGCTTGCGATTGACAGCGTAGAATGAAGG
DNA 2: CCTTCATTCTACGCTGTCAATCGCAAGCGAAATGCTTGAGTGACCCTGGCCTGCCAGGGC
B22: NRC3_wobSeed6_DR0_C13G_o1 (dsDNA)
DNA 1: GCCCTAGCAGGCGAGGGTCACTCAAGCATTTCGCTTGCGATTGACAGCGTAGAATGAAGG
DNA 2: CCTTCATTCTACGCTGTCAATCGCAAGCGAAATGCTTGAGTGACCCTCGCCTGCTAGGGC
B23: NRC3_wobSeed30_DR1_C20G_o1 (dsDNA)
DNA 1: GCACTAGCAGGCCAAGGGTGACTCAAGATTAGTCCGGCGATTGACAGCGTAGAATGAAGG
DNA 2: CCTTCATTCTACGCTGTCAATCGCCGGACTAATCTTGAGTCACCCTTGGCCTGCTAGTGC
B24: NRC3_wobSeed69_DR2_G10A_o1 (dsDNA)
DNA 1: GCAGTCAAAATTCACTAGGTAACGTAAGATTCAGCTGCGATTGACAGCGTAGAATGAAGG
DNA 2: CCTTCATTCTACGCTGTCAATCGCAGCTGAATCTTACGTTACCTAGTGAATTTTGACTGC
B25: NRC3_wobSeed27_DR1_G17T_o1 (dsDNA)
DNA 1: GCACTCGGAGGACAAATGTCAGAGCTACGCCAGTGAGCGATTGACAGCGTAGAATGAAGG
DNA 2: CCTTCATTCTACGCTGTCAATCGCTCACTGGCGTAGCTCTGACATTTGTCCTCCGAGTGC
B26: NRC3_wobSeed100_DR4_A24C_o1 (dsDNA)
DNA 1: GCCCTACTGGGCCACGAAAGGTCCTTGATTCAGTGAGCGATTGACAGCGTAGAATGAAGG
DNA 2: CCTTCATTCTACGCTGTCAATCGCTCACTGAATCAAGGACCTTTCGTGGCCCAGTAGGGC
B27: NRC3_wobSeed124_DR5_T5C_o1 (dsDNA)
DNA 1: GCCCCACTGGGCCATTCAGAGGTCATTGATCATATGGCGATTGACAGCGTAGAATGAAGG
DNA 2: CCTTCATTCTACGCTGTCAATCGCCATATGATCAATGACCTCTGAATGGCCCAGTGGGGC
B28: NRC3_wobSeed124_DR5_A6T_o1 (dsDNA)
DNA 1: GCCCTTCTGGGCCATTCAGAGGTCATTGATCATATGGCGATTGACAGCGTAGAATGAAGG
DNA 2: CCTTCATTCTACGCTGTCAATCGCCATATGATCAATGACCTCTGAATGGCCCAGAAGGGC
B29: NRC3_wobSeed124_DR5_G10T_o1 (dsDNA)
DNA 1: GCCCTACTGTGCCATTCAGAGGTCATTGATCATATGGCGATTGACAGCGTAGAATGAAGG
DNA 2: CCTTCATTCTACGCTGTCAATCGCCATATGATCAATGACCTCTGAATGGCACAGTAGGGC
B30: NRC3_wobSeed124_DR5_C24T_o1 (dsDNA)
DNA 1: GCCCTACTGGGCCATTCAGAGGTTATTGATCATATGGCGATTGACAGCGTAGAATGAAGG
DNA 2: CCTTCATTCTACGCTGTCAATCGCCATATGATCAATAACCTCTGAATGGCCCAGTAGGGC
B31: NRC3_wobSeed82_DR3_A9C_o1 (dsDNA)
DNA 1: GCATCGAACGGTCGACGAGGTGAGTATACACCGTTTGCGATTGACAGCGTAGAATGAAGG
DNA 2: CCTTCATTCTACGCTGTCAATCGCAAACGGTGTATACTCACCTCGTCGACCGTTCGATGC
B32: NRC3_wobSeed4_DR0_T8G_o1 (dsDNA)
DNA 1: GCCCTACGGGGCCAAGGTCATTGATCAGTCAAAGCAGCGATTGACAGCGTAGAATGAAGG
DNA 2: CCTTCATTCTACGCTGTCAATCGCTGCTTTGACTGATCAATGACCTTGGCCCCGTAGGGC
B33: NRC3_wobSeed18_DR0_G9C_o1 (dsDNA)
DNA 1: GCGATACACGGTCAAGGCCAGAGTACGCGTATTGATGCGATTGACAGCGTAGAATGAAGG
DNA 2: CCTTCATTCTACGCTGTCAATCGCATCAATACGCGTACTCTGGCCTTGACCGTGTATCGC

molecular target: RXRa (Homo sapiens, UniProt P19793); assay: no ligand; PBM; 180 nM; PBS pH 7.4, 2% milk, 0.02% Triton X-100, 1 mM DTT, BSA, 0.4 mg/ml salmon testes DNA; conditions: tags: His cleaved; chain copies: 2; label: surface-attached array probe
Sequence (P19793 whole entry): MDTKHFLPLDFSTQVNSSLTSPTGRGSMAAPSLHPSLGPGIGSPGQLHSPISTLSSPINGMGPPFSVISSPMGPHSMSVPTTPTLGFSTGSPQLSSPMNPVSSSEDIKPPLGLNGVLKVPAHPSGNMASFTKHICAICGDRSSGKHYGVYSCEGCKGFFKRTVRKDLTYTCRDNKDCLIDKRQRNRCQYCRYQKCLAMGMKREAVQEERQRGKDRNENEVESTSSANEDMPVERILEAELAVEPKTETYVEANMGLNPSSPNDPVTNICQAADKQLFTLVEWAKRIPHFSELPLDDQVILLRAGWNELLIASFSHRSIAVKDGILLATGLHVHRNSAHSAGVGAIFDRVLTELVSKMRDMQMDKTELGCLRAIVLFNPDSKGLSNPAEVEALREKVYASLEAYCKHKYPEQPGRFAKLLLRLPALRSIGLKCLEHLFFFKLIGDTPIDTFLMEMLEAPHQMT

Binder | binding signal
B1 | 3.55 PBM z-score against 500 random probes
B2 | 3.07 PBM z-score against 500 random probes
B3 | 0.49 PBM z-score against 500 random probes
B4 | 0.2 PBM z-score against 500 random probes
B5 | 0.22 PBM z-score against 500 random probes
B6 | 3.33 PBM z-score against 500 random probes
B7 | 3.86 PBM z-score against 500 random probes
B8 | 3 PBM z-score against 500 random probes
B9 | 3.11 PBM z-score against 500 random probes
B10 | 0.44 PBM z-score against 500 random probes
B11 | 0.4 PBM z-score against 500 random probes
B12 | 3.14 PBM z-score against 500 random probes
B13 | 0.45 PBM z-score against 500 random probes
B14 | 3.81 PBM z-score against 500 random probes
B15 | 3.65 PBM z-score against 500 random probes
B16 | 3.44 PBM z-score against 500 random probes
B17 | 3.28 PBM z-score against 500 random probes

Binder | binding signal
B18 | 0.34 PBM z-score against 500 random probes
B19 | 0.46 PBM z-score against 500 random probes
B20 | 3.24 PBM z-score against 500 random probes
B21 | 3.39 PBM z-score against 500 random probes
B22 | 3.19 PBM z-score against 500 random probes
B23 | 0.36 PBM z-score against 500 random probes
B24 | 0.46 PBM z-score against 500 random probes
B25 | 0.08 PBM z-score against 500 random probes
B26 | 0.26 PBM z-score against 500 random probes
B27 | 3.75 PBM z-score against 500 random probes
B28 | 3.71 PBM z-score against 500 random probes
B29 | 3.59 PBM z-score against 500 random probes
B30 | 0.48 PBM z-score against 500 random probes
B31 | 0.44 PBM z-score against 500 random probes
B32 | 3.5 PBM z-score against 500 random probes
B33 | 0.39 PBM z-score against 500 random probes
